These results are taken from US11299518B2, “Fusion respiratory syncytial virus inhibitors and use thereof” (priority 2016, dated 2022).

Where “and” joins values, the source holds several entries; their conditions need not be identical. Identical values can stand only once. Numbered stars: 1 amine (or outer) side, 2 acyl side, 3 side chain; on linkers, the order of the positions; unused ones are H or OH. Bridge positions count the residues as written; N and C are the ends. Square brackets hold non-standard residues; d marks the D form. Peptide text beside a SMILES is read from it. Nle(6-ylidene) = O=C([C@H](CCCC=[*:3])N[*:1])[*:2]; tBuAla = CC(C)(C)C[C@H](N)C(=O)O; R5 = C=CCCC[C@@](C)(N)C(=O)O; S5 = C=CCCC[C@](C)(N)C(=O)O Bounds are passed on as bounds.

Data set [1] is described as follows: CD spectroscopy, percentage of helicity. The format is physicochemical. Particulars: CD at 222 nm, 10 mM phosphate buffer pH 7.5, 50 μM peptide, 25° C. The method, then:
The secondary structure of the peptides was then characterized by circular dichroism (DC) as described below.
The circular dichroism spectra were acquired on a Jasco J-810 and on a Chirascan spectropolarimeter. The samples were prepared in 10 mM phosphate buffer, pH 7.5, at a peptide concentration of 50 μM. Data were recorded at 25° C. by stepscan from 180 nm to 260 nm in a 0.1 cm pathlength quartz cell using 0.2 nm wavelength increments, 1 nm bandwidth and a response time of 0.5 sec. Each spectrum was an average of three measurements and was subtracted from buffer baseline. The data were converted to per residue molar ellipticity units [θ] (deg·cm2·dmol−1·residue−1) and smoothed using the Igor software. The percentage of helicity was calculated as it follows:
[formula] whereby CD222=molar ellipticity at 222 nm in [mdeg], N=number of amino acids in the peptide and C=peptide molar concentration [mol/l].

Data set [2] in a line: circular dichroism. Particulars: 10 mM phosphate; pH 7.5; 25 °C; 50 uM. On the technique in general: CD spectra are sensitive to the conformation of chiral molecules.

Consider “EQSLAFIRKSDELLHNV (comparative peptide 3) [non-stapled native comparative peptide, reference compound]”, for which, in data set [1], the “% helicity” value is 5.9% and 6.6%. As for “Ac-FDASISQVNEKINQSLAFIRKSDELLHNVNAGKST-NH2 (N-terminus and C-terminus assumed) [Peptide T118, reference compound]”, the “% helicity” value in data set [1] is 23.4%. Turning to `CC[C@H](C)[C@H](NC(=O)[C@H](CCCCN)NC(=O)[C@H](CCC(=O)O)NC(C)=O)C(=O)N[C@@H](CC(N)=O)C(=O)N[C@@H](CCC(N)=O)C(=O)N[C@@H](CO)C(=O)N[C@@H](CC(C)C)C(=O)N[C@H]1CCCC=CCCC[C@@H](C(=O)N[C@@H](CO)C(=O)N[C@@H](CC(=O)O)C(=O)N[C@H]2CCCC=CCCC[C@@H](C(=O)N[C@H](C(N)=O)C(C)C)NC(=O)[C@H](Cc3c[nH]cn3)NC(=O)[C@H](CC(C)C)NC(=O)[C@H](CC(C)C)NC2=O)NC(=O)[C@H](CCCNC(=N)N)NC(=O)[C@H]([C@@H](C)CC)NC(=O)[C@H](Cc2ccccc2)NC1=O` (Ac-EKINQSL[Nle(6-ylidene)]FIR[Nle(6-ylidene)]SD[Nle(6-ylidene)]LLH[Nle(6-ylidene)]V-NH2; staple 8-12, 15-19), the helicity in data set [2] was 46%.

On to “EFPS X486 EFD X490 SI X493 QVN X497 KIN (EFPSXEFDXSIXQVNXKIN; not fully specified; (S)-2-(4-pentenyl)alanine residues, likely stapled; comparative peptide 1eg; (1)..(1) N-term acetylated; (5)..(5) (S)-2-(4-pentenyl)alanine; (9)..(9) (S)-2-(4-pentenyl)alanine; (12)..(12) (S)-2-(4-pentenyl)alanine; (16)..(16) (S)-2-(4-pentenyl)alanine; (19)..(19) C-term amidated) [comparative peptide; X486, X490, X493 and X497 are (S)-2-(4-pentenyl)alanine, reference compound]”, for which the “% helicity” value in data set [1] worked out at 35.3%. Take `CC[C@H](C)[C@@H]1NC(=O)[C@H](Cc2ccccc2)NC(=O)[C@@](C)(NC(=O)[C@H](CC(C)C)NC(=O)[C@H](CO)NC(=O)[C@]2(C)CCCC=CCCC[C@@](C)(NC(=O)[C@H](CCC(=O)O)NC(C)=O)C(=O)N[C@@H]([C@@H](C)CC)C(=O)N[C@@H](CC(N)=O)C(=O)N2)CCCC=CCCC[C@@](C)(C(=O)N[C@@H](CO)C(=O)N[C@@H](CC(=O)O)C(=O)N[C@@H](CCC(=O)O)C(=O)N[C@@H](CC(C)(C)C)C(=O)N[C@@H](CC(C)C)C(=O)N[C@@H](Cc2c[nH]cn2)C(N)=O)NC(=O)[C@H](CCCNC(=N)N)NC1=O` [Peptide 4ca-var8, E Xaa2 IN Xaa5 SL Xaa8 FIR Xaa12 SDE Xaa16LH] (Ac-E[R5]IN[S5]SL[S5]FIR[S5]SDE[tBuAla]LH-NH2; staple 2-5, 8-12): the helicity in data set [2] came to 75.8%. Besides, in data set [1], the “% helicity” value is recorded as 75.8%. The compound `CC[C@H](C)[C@@H]1NC(=O)[C@H](Cc2ccccc2)NC(=O)[C@@](C)(NC(=O)[C@H](CC(C)(C)C)NC(=O)[C@H](CO)NC(=O)[C@]2(C)CCCC=CCCC[C@@](C)(NC(=O)[C@H](CCC(=O)O)NC(C)=O)C(=O)N[C@@H]([C@@H](C)CC)C(=O)N[C@@H](CC(N)=O)C(=O)N2)CCCC=CCCC[C@@](C)(C(=O)N[C@@H](CO)C(=O)N[C@@H](CC(=O)O)C(=O)N[C@@H](CCC(=O)O)C(=O)N[C@@H](CC(C)C)C(=O)N[C@@H](CC(C)C)C(=O)N[C@@H](Cc2c[nH]cn2)C(=O)N[C@@H](CC(N)=O)C(=O)N[C@H](C(N)=O)C(C)C)NC(=O)[C@H](CCCNC(=N)N)NC1=O` [Peptide 4ca-var1] (Ac-E[R5]IN[S5]S[tBuAla][S5]FIR[S5]SDELLHNV-NH2; staple 2-5, 8-12) yielded a helicity in data set [2] of 89.3%. In addition, the “% helicity” value in data set [1] turned out to be 89.3%. As for “EKA Xaa4 QSL Xaa8 FI Xaa11 KSD Xaa15 LLHNV (Ac-EKA[S5]QSL[S5]FI[S5]KSD[S5]LLHNV-NH2; staple 11-15, 4-8 (inferred)) [Peptide V4bb499]”, the “% helicity” value in data set [1] is given as 24%. On the same count and under the same terms, next, “EKI Xaa4 A SL Xaa8 FI Xaa11 KSD Xaa15 LLHNV (Ac-EKI[S5]ASL[S5]FI[S5]KSD[S5]LLHNV-NH2; staple 11-15, 4-8 (inferred)) [Peptide V4bb501]”: 12%. Still for that read-out and setting: to `CC[C@H](C)[C@@H]1NC(=O)[C@H](Cc2ccccc2)NC(=O)[C@@](C)(NC(=O)[C@H](CC(C)C)NC(=O)[C@H](CO)NC(=O)[C@]2(C)CCCC=CCCC[C@@](C)(NC(C)=O)C(=O)N[C@@H]([C@@H](C)CC)C(=O)N[C@@H](CC(N)=O)C(=O)N2)CCCC=CCCC[C@@](C)(C(=O)N[C@@H](CO)C(=O)N[C@@H](CC(=O)O)C(=O)N[C@@H](CCC(=O)O)C(=O)N[C@@H](CC(C)C)C(=O)N[C@@H](CC(C)C)C(N)=O)NC(=O)[C@H](CCCNC(=N)N)NC1=O` [Peptide 4ca16, X498 IN X501 SL X504 FIR X508 SDELL] (Ac-[R5]IN[S5]SL[S5]FIR[S5]SDELL-NH2; staple 1-4, 7-11) belongs over 100%; to “EKINQSL Xaa8 FIR Xaa12 SD Xaa15 LLH Xaa19 V (Ac-EKINQSL[(S)‑2‑(4-pentenyl)glycine]FIR[(S)‑2‑(4-pentenyl)glycine]SD[(S)‑2‑(4-pentenyl)glycine]LLH[(S)‑2‑(4-pentenyl)glycine]V-NH2; staple 8-12, 15-19 (inferred); not fully specified; printed as EKINQSL Xaa8 FIR Xaa12 SD Xaa15 LLH Xaa19 V) [Peptide 4a2, Xaa8, Xaa12, Xaa15 and Xaa19 are (S)-2-(4-pentenyl)glycine; Formula (C7)]”, 46%.

As for “EKI Xaa4 Q A L Xaa8 FI Xaa11 KSD Xaa15 LLHNV (Ac-EKI[S5]QAL[S5]FI[S5]KSD[S5]LLHNV-NH2; staple 11-15, 4-8 (inferred)) [Peptide V4bb502]”, the “% helicity” value in data set [1] amounted to 15%. `CC[C@H](C)[C@@H]1NC(=O)[C@H](Cc2ccccc2)NC(=O)[C@@](C)(NC(=O)[C@H](CC(C)C)NC(=O)[C@H](CO)NC(=O)[C@]2(C)CCCC=CCCC[C@@](C)(NC(=O)[C@H](CCC(=O)O)NC(C)=O)C(=O)N[C@@H]([C@@H](C)CC)C(=O)N[C@@H](CCCCN)C(=O)N2)CCCC=CCCC[C@@](C)(C(=O)N[C@@H](CO)C(=O)N[C@@H](CC(=O)O)C(=O)N[C@@H](CCC(=O)O)C(=O)N[C@@H](CC(C)(C)C)C(=O)N[C@@H](CC(C)C)C(=O)N[C@@H](Cc2c[nH]cn2)C(=O)N[C@@H](CC(N)=O)C(=O)N[C@H](C(N)=O)C(C)C)NC(=O)[C@H](CCCNC(=N)N)NC1=O` [Peptide 4ca-var5, E Xaa2 IK Xaa5 SL Xaa8 FIR Xaa12 SDE Xaa16LHNV] (Ac-E[R5]IK[S5]SL[S5]FIR[S5]SDE[tBuAla]LHNV-NH2; staple 2-5, 8-12) came in with a helicity in data set [2] of 82.3%. Moreover, the “% helicity” value in data set [1] was found to be 82.3%.
